Results: the supplement of paper PMC9170038

tested on: MS2 coat protein; experiment: apparent KD of MS2 coat protein, switch ON state; designed switch direction (-1 OFF switch, 1 ON switch): -1; higher = weaker reporter binding; conditions: FMN input: 0 or 200 uM; Eterna round: R93 (includes R88 designs)
Method in brief: (§1)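 Values are apparent KD, taken as the median for each design of fits to normalised binding curves from individual clusters. The designed RNA switches were transcribed on-chip from Illumina sequencing clusters and exposed to SNAP-549-labelled MS2 coat protein at twofold increasing amounts from 0.7 or 1.5 nM to 3 µM. Titration used 100 mM Tris-HCl pH 7.5, 80 mM KCl and 4 mM MgCl2, without or with constant ligand.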

Row | Sequence | apparent KD of MS2 coat protein [nM]
1 | AAGAAGUGAGGAUAUCGAAGACAGACGAAAAGUCUGUCAAGCGAGAAGGCACAUGAGGAUCACCCAUGUGGAAG [Mat - Exaclusion 4 - Eli mod - D80] | 31.8
2 | GCUCAGUAAGGAUAUUAAUGGCGCUGUUAUUCAGCACCAGCUGAGAAGGUACAUGAGGAUCACCCAUGUGGUGA [Berion] | 240
3 | AACAGUACAGGAUAUACAUGAGGAUCACCCAUGUGAGAAACCAAUGGCGUACCAUAAAGUAGAAGGGUACUGGA [Moding Maslow Revisited (73) 31] | 62.3
4 | AAAAGGUGAGGAUAUUCGAAAAUAAAAUAAAAUAAAAUAAAGAAGAAGGCACAUGAGGAUCACCCAUGUAAUAA [LROPPY Exclusion 4 - v02_deltaG=2.94 break up the As] | 25.9
5 | AAAAAGUCAGGAUAUAUCAAAAAAAAAGAAAAAAAAAAAAGAUAGAAGGGACAUGAGGAUCACCCAUGUAAAAA [water's exclusion 4 last] | 74.3
6 | AAAAAACAUGAGGAUCACCCAUGUAAGGAUAUCUAAAAUAAAAGAAAAAUAAAGAAAAGGAGAAGGUAUAUGAA [JL wbt mod 20] | 19.8
7 | GGUUGGCGAGGAUAUACAUGAGGAUCACCCAUGUGAGAGAAAAAAGUGUGAAAGAAAAGUAGAAGGCGCUGACG [salish99-ex3-54] | 31
8 | AACAGUACAGGAUAUACAUGAGGAUCACCCAUGUGAAGAUUAAGUGGUGUACCACAAAGUAGAAGGGUACUGGA [Ruby 90] | 54.9
9 | GGUUUGCAAGGAUAUACAUGAGGAUCACCCAUGUGAGAGAAAAAAGUGAGAAAGAAAAGUAGAAGGUGCGGACG [salish99-ex3-121] | 22.3
10 | CUCUUGUGAGGAUAUCAAAGAAAAGAAGAGAAAGAAAAGAAUGAGAAGGCACAUGAGGAUCACCCAUGUAAGAA [EteRNA is fun!] | 28.9
11 | AAAAAACAUGAGGAUCACCCAUGUGAGGAUAUGCAAAACCCAUAUAAAAAGGGAAAAAGUAGAAGGCGCAAAAA [wbt round 1 mod 9] | 20.5
12 | AACUGACAUGAGGAUCACCCAUGUCAGGAUAUGACUUCAAAAAAAAAAAAAAAUGAUGUCAGAAGGGACAUGGA [Design 64: Sub-opt MB] | 19.2
13 | AAAAAACAUGAGGAUCACCCAUGUAAGGAUAUGUAAAAUAAAAGAAAAAUAAAGAAAAGCAGAAGGUACAUGGA [JL wbt mod 15] | 54.9
14 | ACAAACCUAGGAUAUACAUGAGGAUCACCCAUGUACAAAGGCGUAGGCGACAAAAGAGGUAGAAGGAGGAAAGG [Disoed] | 21.9
15 | ACUUGACAUGAGGAUCACCCAUGUCAGGAUAUAGUAGGACAAAUAAAUAAAAGUUCUACUAGAAGGGAUAUGGA [Design 18: G-U+ 3] | 16.7
16 | AAGAAACAUGAGGAUCACCCAUGUCAGGAUAUCUAAAAGAAAAGAAAAGAAAGAAGAAAGAGAAGGGACAAAGG [Neferirkare] | 39.2
17 | AGGGAACAUGAGGAUCACCCAUGUGAGGAUAUAGAAAAGAAAAGAAAAGAAAGAAGAACUAGAAGGUACAAGAA [Merenre Nemtyemsaf I] | 26.1

Row | Sequence | apparent KD of MS2 coat protein [nM]
18 | GGUUUGCUAGGAUAUACAUGAGGAUCACCCAUGUGAGAGAAAAAAGUGAGAAAGAAAAGUAGAAGGAGCGGACG [salish99-ex3-122] | 68.2
19 | AGAAUACAUGAGGAUCACCCAUGUGAGGAUAUCAAAAGAAAAAGAAAAGAAAAGAAAAUGAGAAGGCACAAAAG [EX 1 May 14] | 48.3
20 | GGAAAACAUGAGGAUCACCCAUGUGAGGAUAUGCAGGAUAUAGAAGGAAAAAAAAAAAGCAGAAGGUACGAAGG [salish99-ex1-17] | 22.3
21 | AGCUAGUGAGGAUAUACAAGAAUAUAAACAAAAAUGAAGGGACAUGAGGAUCACCCAUGUAGAAGGCACUAGCA [Diamond 72] | 55.2
22 | AGCAAACAUGAGGAUCACCCAUGUGAGGAUAUGAACGAAAUAAAAUAAAAAUAAAAGUUCAGAAGGCACGAGCA [Mat - Exclusion 1 - Eli mod - D26] | 27.3
23 | AACAGGACAGGAUAUACAUGAGGAUCACCCAUGUGAGAAUUUAGCAGCGUACCACACAGUAGAAGGGUCAUGGA [Ruby 23] | 40.8
24 | CUUGUGUGAGGAUAUGUAAGAUGAAUAAGCAGUUCUAAAAGGCAGAAGGCACAUGAGGAUCACCCAUGUAAAAU [Sodirexe] | 61.3
25 | GAAACACAUGAGGAUCACCCAUGUCAGGAUAUGUAGAUAAAAAGAAAAUAAAAUAAAAGCAGAAGGGACAAAAG [Mat - Same state - Mayanna Mod - D104] | 30.2
26 | AAAAAGUCAGGAUAUGUCAAAGGUCACGAAAGUGACAAAGGACAGAAGGGACAUGAGGAUCACCCAUGUAGGAA [Fiskers Exclusion 4D1 65% - Late G segment 2] | 55.5
27 | AAAAAACAUGAGGAUCACCCAUGUGAGGAUAUUGGUAUUCAAGAAACCCUCUUAAUAGCGAGAAGGCGCAAAAA [Brourd 613 Mod 18 - Jieux - Exclusion 1] | 22.2
28 | ACAAGAUCAGGAUAUACAUGAGGAUCACCCAUGUGAAAGAACGAUUAACGACCAGCAAGUAGAAGGGAUCAGGA [Ruby 82] | 20.5
29 | AAAAAACAUGAGGAUCACCCAUGUGAGGAUAUCCAAAAGUUAAAGAAAAAGACGAAAAGGAGAAGGCGCAAAAA [Fiskers Exclusion D3] | 68.7
30 | AAGUUGACAGGAUAUACUUGGGCAACAAAUAAACUAAUAUAACAUGAGGAUCACCCAUGUAGAAGGGUCAGAAA [JR_Exc002_Sub207] | 46.3
31 | AACAAACAUGAGGAUCACCCAUGUGAGGAUAUCGAAACAACAAACAACAAACAACAAACGAGAAGGCGCAACAA [e1-2] | 18.8
32 | AGCUAGUCAGGAUAUACAAAAAUGACAGAAGACGUAAGGGAACAUGAGGAUCACCCAUGUAGAAGGGACUAGCA [Diamond 43] | 61.5
33 | AGCUAGUCAGGAUAUGCAUGAAUGUCAAAAGACGUAAAGGGACAUGAGGAUCACCCAUGUAGAAGGGACUAGCA [JL In the Red 4?] | 120
34 | AAAAAGUCAGGAUAUACGUACAUGUCAAAAGACGUGAAGGGACAUGAGGAUCACCCAUGUAGAAGGGACAAGAA [JL Stem Breaker 21] | 106

tested on: MS2 coat protein; experiment: apparent KD of MS2 coat protein, switch OFF state (with FMN for OFF switches, without FMN for ON switches); designed switch direction (-1 OFF switch, 1 ON switch): -1; higher = weaker reporter binding; conditions: FMN input: 0 or 200 uM; Eterna round: R93 (includes R88 designs)
Method in brief: as §1

Row | Sequence | apparent KD of MS2 coat protein [nM]
35 | AAGAAGUGAGGAUAUCGAAGACAGACGAAAAGUCUGUCAAGCGAGAAGGCACAUGAGGAUCACCCAUGUGGAAG [Mat - Exaclusion 4 - Eli mod - D80] | 33.4
36 | GCUCAGUAAGGAUAUUAAUGGCGCUGUUAUUCAGCACCAGCUGAGAAGGUACAUGAGGAUCACCCAUGUGGUGA [Berion] | 216
37 | AACAGUACAGGAUAUACAUGAGGAUCACCCAUGUGAGAAACCAAUGGCGUACCAUAAAGUAGAAGGGUACUGGA [Moding Maslow Revisited (73) 31] | 158
38 | AAAAGGUGAGGAUAUUCGAAAAUAAAAUAAAAUAAAAUAAAGAAGAAGGCACAUGAGGAUCACCCAUGUAAUAA [LROPPY Exclusion 4 - v02_deltaG=2.94 break up the As] | 24.9
39 | AAAAAGUCAGGAUAUAUCAAAAAAAAAGAAAAAAAAAAAAGAUAGAAGGGACAUGAGGAUCACCCAUGUAAAAA [water's exclusion 4 last] | 34.2
40 | AAAAAACAUGAGGAUCACCCAUGUAAGGAUAUCUAAAAUAAAAGAAAAAUAAAGAAAAGGAGAAGGUAUAUGAA [JL wbt mod 20] | 25.7
41 | GGUUGGCGAGGAUAUACAUGAGGAUCACCCAUGUGAGAGAAAAAAGUGUGAAAGAAAAGUAGAAGGCGCUGACG [salish99-ex3-54] | 13
42 | AACAGUACAGGAUAUACAUGAGGAUCACCCAUGUGAAGAUUAAGUGGUGUACCACAAAGUAGAAGGGUACUGGA [Ruby 90] | 77.9
43 | GGUUUGCAAGGAUAUACAUGAGGAUCACCCAUGUGAGAGAAAAAAGUGAGAAAGAAAAGUAGAAGGUGCGGACG [salish99-ex3-121] | 62.7
44 | CUCUUGUGAGGAUAUCAAAGAAAAGAAGAGAAAGAAAAGAAUGAGAAGGCACAUGAGGAUCACCCAUGUAAGAA [EteRNA is fun!] | 59.5
45 | AAAAAACAUGAGGAUCACCCAUGUGAGGAUAUGCAAAACCCAUAUAAAAAGGGAAAAAGUAGAAGGCGCAAAAA [wbt round 1 mod 9] | 17.4
46 | AACUGACAUGAGGAUCACCCAUGUCAGGAUAUGACUUCAAAAAAAAAAAAAAAUGAUGUCAGAAGGGACAUGGA [Design 64: Sub-opt MB] | 20.7
47 | AAAAAACAUGAGGAUCACCCAUGUAAGGAUAUGUAAAAUAAAAGAAAAAUAAAGAAAAGCAGAAGGUACAUGGA [JL wbt mod 15] | 91.1
48 | ACAAACCUAGGAUAUACAUGAGGAUCACCCAUGUACAAAGGCGUAGGCGACAAAAGAGGUAGAAGGAGGAAAGG [Disoed] | 22.9
49 | ACUUGACAUGAGGAUCACCCAUGUCAGGAUAUAGUAGGACAAAUAAAUAAAAGUUCUACUAGAAGGGAUAUGGA [Design 18: G-U+ 3] | 15.7
50 | AAGAAACAUGAGGAUCACCCAUGUCAGGAUAUCUAAAAGAAAAGAAAAGAAAGAAGAAAGAGAAGGGACAAAGG [Neferirkare] | 61.3
51 | AGGGAACAUGAGGAUCACCCAUGUGAGGAUAUAGAAAAGAAAAGAAAAGAAAGAAGAACUAGAAGGUACAAGAA [Merenre Nemtyemsaf I] | 30

Row | Sequence | apparent KD of MS2 coat protein [nM]
52 | GGUUUGCUAGGAUAUACAUGAGGAUCACCCAUGUGAGAGAAAAAAGUGAGAAAGAAAAGUAGAAGGAGCGGACG [salish99-ex3-122] | 66.4
53 | AGAAUACAUGAGGAUCACCCAUGUGAGGAUAUCAAAAGAAAAAGAAAAGAAAAGAAAAUGAGAAGGCACAAAAG [EX 1 May 14] | 51.7
54 | GGAAAACAUGAGGAUCACCCAUGUGAGGAUAUGCAGGAUAUAGAAGGAAAAAAAAAAAGCAGAAGGUACGAAGG [salish99-ex1-17] | 36.3
55 | AGCUAGUGAGGAUAUACAAGAAUAUAAACAAAAAUGAAGGGACAUGAGGAUCACCCAUGUAGAAGGCACUAGCA [Diamond 72] | 221
56 | AGCAAACAUGAGGAUCACCCAUGUGAGGAUAUGAACGAAAUAAAAUAAAAAUAAAAGUUCAGAAGGCACGAGCA [Mat - Exclusion 1 - Eli mod - D26] | 37.4
57 | AACAGGACAGGAUAUACAUGAGGAUCACCCAUGUGAGAAUUUAGCAGCGUACCACACAGUAGAAGGGUCAUGGA [Ruby 23] | 48.6
58 | CUUGUGUGAGGAUAUGUAAGAUGAAUAAGCAGUUCUAAAAGGCAGAAGGCACAUGAGGAUCACCCAUGUAAAAU [Sodirexe] | 16.1
59 | GAAACACAUGAGGAUCACCCAUGUCAGGAUAUGUAGAUAAAAAGAAAAUAAAAUAAAAGCAGAAGGGACAAAAG [Mat - Same state - Mayanna Mod - D104] | 29.4
60 | AAAAAGUCAGGAUAUGUCAAAGGUCACGAAAGUGACAAAGGACAGAAGGGACAUGAGGAUCACCCAUGUAGGAA [Fiskers Exclusion 4D1 65% - Late G segment 2] | 68.5
61 | AAAAAACAUGAGGAUCACCCAUGUGAGGAUAUUGGUAUUCAAGAAACCCUCUUAAUAGCGAGAAGGCGCAAAAA [Brourd 613 Mod 18 - Jieux - Exclusion 1] | 19.8
62 | ACAAGAUCAGGAUAUACAUGAGGAUCACCCAUGUGAAAGAACGAUUAACGACCAGCAAGUAGAAGGGAUCAGGA [Ruby 82] | 28.5
63 | AAAAAACAUGAGGAUCACCCAUGUGAGGAUAUCCAAAAGUUAAAGAAAAAGACGAAAAGGAGAAGGCGCAAAAA [Fiskers Exclusion D3] | 40.7
64 | AAGUUGACAGGAUAUACUUGGGCAACAAAUAAACUAAUAUAACAUGAGGAUCACCCAUGUAGAAGGGUCAGAAA [JR_Exc002_Sub207] | 56.4
65 | AACAAACAUGAGGAUCACCCAUGUGAGGAUAUCGAAACAACAAACAACAAACAACAAACGAGAAGGCGCAACAA [e1-2] | 17.3
66 | AGCUAGUCAGGAUAUACAAAAAUGACAGAAGACGUAAGGGAACAUGAGGAUCACCCAUGUAGAAGGGACUAGCA [Diamond 43] | 184
67 | AGCUAGUCAGGAUAUGCAUGAAUGUCAAAAGACGUAAAGGGACAUGAGGAUCACCCAUGUAGAAGGGACUAGCA [JL In the Red 4?] | 277
68 | AAAAAGUCAGGAUAUACGUACAUGUCAAAAGACGUGAAGGGACAUGAGGAUCACCCAUGUAGAAGGGACAAGAA [JL Stem Breaker 21] | 49.6
